In general, Km refers to the concentration of substrate that gives half-maximal velocity. The Vmax is the top rate of the reaction or transport when substrate is in excess.

The test system of one series is HUVEC and U87MG cells. Briefly: Fluorescence microscopy of binding and distribution of yCD series fusion proteins. Type of series: cell-based, human. Particulars: 500 nM protein, 2 hours. The method, then:
(FIG. 8A) or 37° C. […] (FIG. 8C) or 37° C. (FIG. 8D) for 2 hours, and then the fluorescent staining is performed for the cells, and the confocal fluorescence microscope is used to observe the distribution of protein in cells. (Green signal: β3 integrin; red signal: anti-His6-tag (also represents the signal of the fusion protein); blue signal: Hoechst 33342 cell nuclear stain) (Calibration scale: 20 μm).
HUVEC and U87MG cells are co-cultured with culture medium containing 500 nM RGD4C-yCD and RGD4C-yCD/UPRT protein at 4° C. and 37° C. for 2 hours, then the cells are stained with fluorescence, and the distribution in the cell is observed by conjugated fluorescence microscopy.

A further series concerns HUVEC cells. In words: Specific binding assay of yCD series recombinant protein and cell (cell ELISA). Type of series: cell-based, human. Particulars: HUVEC versus MCF-7. The method, then: (§1) FIG. 5A, FIG. 5B, and FIG. 5C are respectively represented HUVEC cells, U87MG cells, MCF-7 cells seeded in 96-well plates for 24 hours, and then RGD4C-yCD, yCD, RGD4C-yCD/UPRT and yCD/UPRT with different concentrations are added for cells binding assay. After reacted with anti-His-HRP antibody and TMB substrate, ELISA reader (OD450 nm) is used to detect the amount of recombinant protein bound to the cells, and the binding curve is drawn. The nonlinear curve of the prism software is used to make a diagram and calculate the dissociation constant (Kd).
(§2) The anti-His6-Tag-HRP antibody and TMB show the color reagent to detect the amount of recombinant protein bound to the cell, then the dissociation constant Kd value of the recombinant protein and the integrin αvβ3 receptor is calculated and a binding curve is drawn. […] The cell binding ability of RGD4C-yCD for HUVEC and U87MG are about 7.7 folds and 6.8 folds higher than MCF-7 respectively. The cell binding ability of RGD4C-yCD/UPRT for HUVEC and U87MG are about 6.9 folds and 5.8 folds higher than MCF-7 respectively. […] It is shown that RGD4C-yCD and RGD4C-yCD/UPRT are specially bound with integrin αvβ3 through RGD4C sequence.
Background: An ELISA detects its analyte on a solid surface through an enzyme-linked reagent.

Another series addresses integrin αvβ3 receptor (Homo sapiens, UniProt P05106+P06756). Briefly: ELISA binding assay of yCD series recombinant protein to integrin αvβ3 receptor. Particulars: for decrease of binding to integrin αvβ3 by RGDfv peptide: RGDfv peptide at same concentration. As to the method:
FIGS. 3A-3B show the binding affinity and specificity of RGD4C-yCD, yCD, RGD4C-yCD/UPRT and yCD/UPRT proteins to integrin αvβ3. The binding affinities of RGD4C-yCD, yCD, RGD4C-yCD/UPRT and yCD/UPRT proteins to integrin αvβ3 were determined by ELISA assay using horseradish peroxidase (HRP)-tagged anti-His6 antibody (FIG. 3A). The dissociation constant Kd is obtained by prism software with curve fitting method. […] (*compared with untreated RGDfv group, P<0.05)
The specific binding ability of RGD4C-yCD, yCD, RGD4C-yCD/UPRT and yCD/UPRT recombinant protein to integrin αvβ3 receptor is analyzed by ELISA binding assay, plotted with prism software and made with curve fitting to find the dissociation constant Kd value.

Series [1] can be described thus: Enzyme activity and kinetic analysis of yCD series recombinant proteins (5-FC converted into 5-FU). The format is biochemical. Particulars: 50 nM protein. The method, then:
FIGS. 2A-2B show the enzyme activities of RGD4C-yCD, yCD, RGD4C-yCD/UPRT and yCD/UPRT proteins to convert 5-FC to 5-FU. 50 nM of RGD4C-yCD, yCD, RGD4C-yCD/UPRT or yCD/UPRT protein reacted with increasing concentrations of 5-FC in phosphate buffered saline solutions. […] The measured data was used to plot the enzyme kinetic curve that takes the substrate concentration [S] as the x-axis and takes the initial reaction rate V0 as the y-axis,
The enzyme activity of 5-FC converted into 5-FU by RGD4C-yCD, yCD, RGD4C-yCD/UPRT and yCD/UPRT is performed. The recombinant protein concentration (50 nM) added with 5-FC at different concentrations. The 5-FC consumption and the generated amount of 5-FU is calculated. The measured data is taken as the x-axis by the substrate concentration [S]; the initial reaction rate V0 is the kinetic curve by making a diagramthe with y-axis (see FIG. 2A and FIG. 2B); the non-linear regression is made by the prism software according to the Michaelis-Menten equation; calculate the enzyme kinetic parameter Km and Vmax. […] It is speculated that the yCD function in each fusion protein is similar, but yUPRT may affect the effects of yCD and 5-FC.

Series [2] in a line: Enzyme kinetic analysis of yCD series proteins after DTPA modification, marking and purification. The format is biochemical. The source says: The enzyme activity of yCD is not affected by DTPA modification.
FIGS. 24A-24B show the kinetic curve of yCD series protein modified, labeled and purified by DTPA. The enzyme activity of the two proteins is not affected by the labeling conditions. After adding EDTA with a 10-fold molar excess of protein, and it is competitively purified, In-DTPA-yCD compared with the original enzyme activity.
The curve and enzyme kinetic parameters (see FIG. 18 and Table 13) are fitted by the […] protein enzyme kinetics through the Michaelis-Menten formula in the Graph prism program.
Before the protein is labeled by radioisotope, its enzyme function must be determined, and based on the original enzyme function, it should be examined whether it will be affected during the radioactive marking process. The curve and enzyme kinetic parameters of protein are fitted by the Michaelis-Menten formula in the Graph prism program. […] Whether the yCD and RGD4C-yCD protein detected by the same method will be affected under the conditions of DTPA modification, marking and purification. […] After the completion of the radioactive metal mark, it is necessary to add EDTA of 10-fold protein Moire number and react at room temperature for 1 hour to compete for the radioactive metal isotope indium which is not chelated on DTPA. The EDTA in this step also has the chance to chelate the metal zinc ion of the enzyme catalytic center, the enzyme activity is impaired, so it is necessary to analyze the enzyme activity of In-DTPA-yCD and In-RGD4C-yCD protein after competition with EDTA. After the EDTA competitive reaction is completed, the enzyme kinetics analysis can be carried out by reducing the EDTA molecule weight through membrane centrifugation method and by replacing the solution with pH 7.0. […] The curve and receptor binding ability parameters of the protein and integrin αvβ3 are fitted under the conditions of DTPA modification, marking and purification by the One site-Specific binding formula in the Graph prism program (see FIG. 25 and Table 18). […] Although the two proteins after marking are greatly affected by the enzyme activity, they still have good binding ability to the integrin αvβ3 receptor. In consideration of the indispensability of EDTA for radiochemical purity, it retains a considerable amount of enzyme activity. In addition, the effect of integrin αvβ3 receptor binding ability is minimal, in combination of cell uptake, biodistribution and angiography experiment, focusing on the evaluation of target results, and the subsequent biological experiment is still carried out by the marking and purification conditions.

The subject of series [3] is HUVEC, U87MG and MCF-7 cells. Briefly: Specific binding assay of yCD series recombinant protein and cell, statement for the three cells. The format is cell-based, human. As to the method:
as §1, §2

integrin αvβ3 receptor, sequence (P06756 31-889 limits assumed): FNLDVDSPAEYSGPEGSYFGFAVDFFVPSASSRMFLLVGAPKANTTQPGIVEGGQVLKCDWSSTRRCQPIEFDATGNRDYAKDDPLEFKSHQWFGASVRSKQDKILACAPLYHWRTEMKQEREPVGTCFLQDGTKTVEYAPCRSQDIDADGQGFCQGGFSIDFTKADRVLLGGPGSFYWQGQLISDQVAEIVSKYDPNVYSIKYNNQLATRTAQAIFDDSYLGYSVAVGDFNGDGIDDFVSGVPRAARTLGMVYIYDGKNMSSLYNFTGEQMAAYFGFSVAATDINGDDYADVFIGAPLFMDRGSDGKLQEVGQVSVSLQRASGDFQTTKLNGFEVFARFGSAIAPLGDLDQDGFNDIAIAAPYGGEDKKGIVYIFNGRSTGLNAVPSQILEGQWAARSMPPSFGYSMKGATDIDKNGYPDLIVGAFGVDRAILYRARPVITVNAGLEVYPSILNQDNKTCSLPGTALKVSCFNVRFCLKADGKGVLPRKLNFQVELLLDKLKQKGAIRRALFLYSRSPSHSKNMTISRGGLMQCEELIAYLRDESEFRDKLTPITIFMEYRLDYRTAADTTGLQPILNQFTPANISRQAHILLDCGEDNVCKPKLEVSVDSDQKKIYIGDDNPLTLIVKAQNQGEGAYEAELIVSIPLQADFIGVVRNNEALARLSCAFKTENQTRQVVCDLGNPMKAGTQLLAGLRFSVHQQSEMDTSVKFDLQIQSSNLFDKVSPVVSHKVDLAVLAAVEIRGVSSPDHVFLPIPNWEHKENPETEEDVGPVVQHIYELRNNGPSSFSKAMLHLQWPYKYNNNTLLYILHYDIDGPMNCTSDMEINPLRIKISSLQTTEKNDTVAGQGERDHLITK
integrin αvβ3 receptor, sequence (P06756 891-1048 partner limits assumed): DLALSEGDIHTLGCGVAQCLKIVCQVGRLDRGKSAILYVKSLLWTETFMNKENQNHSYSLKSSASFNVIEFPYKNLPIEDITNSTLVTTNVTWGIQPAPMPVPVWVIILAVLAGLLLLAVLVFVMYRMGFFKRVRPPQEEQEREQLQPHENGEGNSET
integrin αvβ3 receptor, sequence (P05106 27-788): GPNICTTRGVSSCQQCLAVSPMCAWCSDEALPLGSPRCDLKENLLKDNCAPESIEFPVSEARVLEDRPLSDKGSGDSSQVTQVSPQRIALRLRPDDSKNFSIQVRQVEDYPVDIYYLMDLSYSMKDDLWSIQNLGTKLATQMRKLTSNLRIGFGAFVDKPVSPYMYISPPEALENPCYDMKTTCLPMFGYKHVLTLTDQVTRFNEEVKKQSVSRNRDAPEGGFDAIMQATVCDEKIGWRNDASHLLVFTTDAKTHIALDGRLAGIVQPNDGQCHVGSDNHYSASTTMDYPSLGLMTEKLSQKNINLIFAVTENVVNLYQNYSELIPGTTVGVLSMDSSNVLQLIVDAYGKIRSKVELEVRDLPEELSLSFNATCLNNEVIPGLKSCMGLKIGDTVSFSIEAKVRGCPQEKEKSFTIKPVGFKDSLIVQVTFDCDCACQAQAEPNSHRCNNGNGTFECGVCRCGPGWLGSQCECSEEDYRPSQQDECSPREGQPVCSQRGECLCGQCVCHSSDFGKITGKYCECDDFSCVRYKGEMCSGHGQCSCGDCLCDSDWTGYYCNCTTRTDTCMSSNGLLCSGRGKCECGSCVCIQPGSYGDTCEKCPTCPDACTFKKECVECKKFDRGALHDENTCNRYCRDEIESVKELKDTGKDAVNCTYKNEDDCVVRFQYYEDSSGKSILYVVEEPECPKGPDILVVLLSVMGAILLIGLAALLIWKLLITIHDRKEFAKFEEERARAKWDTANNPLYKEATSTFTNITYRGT

B1: RGD4C-yCD: targeted prodrug enzyme fusion protein of RGD4C and yCD (SEQ ID NO: 3) (protein)
chain: MACDCRGDCFCVTGGMASKWDQKGMDIAYEEAALGYKEGGVPIGGCLINNKDGSVLGRGHNMRFQKGSATLHGEISTLENCGRLEGKVYKDTTLYTTLSPCDMCTGAIIMYGIPRCVVGENVNFKSKGEKYLQTRGHEVVVVDDERCKKIMKQFIDERPQDWFEDIGELEHHHHHH
modifications: RGD4C_yCD
Consider B1, for which the “binding and distribution in cells” value was “only bound to HUVEC and U87MG cell surface” in the series with HUVEC and U87MG cells (4° C.); “enter the inside of HUVEC and U87MG cells through endocytosis” in the series with HUVEC and U87MG cells (37° C.). The “cell binding ability higher than MCF-7” value with HUVEC cells is “about 7.7 folds”. The “decrease of binding to integrin αvβ3 by RGDfv peptide” value in the series with integrin αvβ3 receptor came to 50%. The Km is 600 ± 100 µM in series [1] (calculated by 5-FC consumption), 900 ± 100 µM in series [1] (calculated by 5-FU formation) and 1000 ± 73.2 µM in series [2]. The Vmax in series [1] (calculated by 5-FC consumption) was 179.5 ± 4.7 µM/min; in series [1] (calculated by 5-FU formation), 167.7 ± 4.6 µM/min; in series [2] it was 288.7 ± 8.883 µM/min.

B2: yCD/UPRT: recombinant fusion of yCD and yUPRT without target molecule (protein)
chain: MVVTGGMASKWDQKGMDIAYEEAALGYKEGGVPIGGCLINNKDGSVLGRGHNMRFQKGSATLHGEISTLENCGRLEGKVYKDTTLYTTLSPCDMCTGAIIMYGIPRCVVGENVNFKSKGEKYLQTRGHEVVVVDDERCKKIMKQFIDERPQDWFEDIGEASEPFKNVYLLPQTNQLLGLYTIIRNKNTTRPDFIFYSDRIIRLLVEEGLNHLPVQKQIVETDTNENFEGVSFMGKICGVSIVRAGESMEQGLRDCCRSVRIGKILIQRDEETALPKLFYEKLPEDISERYVFLLDPMLATGGSAIMATEVLIKRGVKPERIYFLNLICSKEGIEKYHAAFPEVRIVTGALDRGLDENKYLVPGLGDFGDRYYCVLEHHHHHH
For B2, the “binding and distribution in cells” value in the series on HUVEC and U87MG cells (4° C.) was “can not be effectively bound”. Also, the “binding to the three cells” value in series [3] is reported as “weak binding”. Moreover, the “binding to integrin αvβ3” value with integrin αvβ3 receptor (ELISA) is given as “cannot be bound”. In series [1] (calculated by 5-FC consumption), the Km is 1200 ± 100 µM and the Vmax was 137.2 ± 3.6 µM/min. Moreover, in series [1] (calculated by 5-FU formation), the Michaelis constant (Km) was 1200 ± 100 µM and the maximum rate (Vmax) is 112.7 ± 8.1 µM/min.

B3: RGD4C-yCD/UPRT: targeted prodrug enzyme fusion protein (SEQ ID NO: 4) (protein)
chain: MACDCRGDCFCVTGGMASKWDQKGMDIAYEEAALGYKEGGVPIGGCLINNKDGSVLGRGHNMRFQKGSATLHGEISTLENCGRLEGKVYKDTTLYTTLSPCDMCTGAIIMYGIPRCVVGENVNFKSKGEKYLQTRGHEVVVVDDERCKKIMKQFIDERPQDWFEDIGEASEPFKNVYLLPQTNQLLGLYTIIRNKNTTRPDFIFYSDRIIRLLVEEGLNHLPVQKQIVETDTNENFEGVSFMGKICGVSIVRAGESMEQGLRDCCRSVRIGKILIQRDEETALPKLFYEKLPEDISERYVFLLDPMLATGGSAIMATEVLIKRGVKPERIYFLNLICSKEGIEKYHAAFPEVRIVTGALDRGLDENKYLVPGLGDFGDRYYCVLEHHHHHH
modifications: RGD4C_yCD_yUPRT
Consider B3, for which the “binding and distribution in cells” value with HUVEC and U87MG cells (4° C.) was “only bound to HUVEC and U87MG cell surface”; with HUVEC and U87MG cells (37° C.) it was “enter the inside of HUVEC and U87MG cells through endocytosis”. Further, in the series with HUVEC cells, the “cell binding ability higher than MCF-7” value was “about 6.9 folds”. In addition, the “decrease of binding to integrin αvβ3 by RGDfv peptide” value with integrin αvβ3 receptor amounted to 50%. Further, the Km in series [1] (calculated by 5-FC consumption) and in series [1] (calculated by 5-FU formation) was 1200 ± 200 µM each time. In addition, the maximal velocity (Vmax) in series [1] (calculated by 5-FC consumption) was 147.0 ± 5.9 µM/min; in series [1] (calculated by 5-FU formation), 109.2 ± 10.1 µM/min.

The values are drawn from patent publication US10947270B2, “Targeted prodrug cytosine deaminase fusion carrier and application thereof” (National Yang-Ming University, priority 2015, dated 2021).
